B1: SPDEF (parent)
chain: FQELAGKELCAMSEEQFRQRSPLG

Variants of: B1
Assay: protein stability index of a GFP-peptide fusion (GPS, HEK-293T) (PSI 1-6); higher = more stable
Details: c terminus: a fixed tail appended
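Also: lentivirally expressed fusions sorted by FACS into six bins by GFP to DsRed ratio, PSI derived from sequencing read proportions per bin multiplied by bin number.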

Row | Variant | protein stability index
1 | FQELAGKELCAGSEEQFRQRSPLG [M12G] | 3.04
2 | FQELAGKELCAWSEEQFRQRSPLG [M12W] | 1.79
3 | FQELAGKELCACSEEQFRQRSPLG [M12C] | 2.39
4 | FQELAGKELCAHSEEQFRQRSPLG [M12H] | 2.9
5 | FQELAGKELCAKSEEQFRQRSPLG [M12K] | 3.3
6 | FQELAGKELCAYSEEQFRQRSPLG [M12Y] | 2.88
7 | FQELAGKELCAQSEEQFRQRSPLG [M12Q] | 3.19
8 | FQELAGKELCAESEEQFRQRSPLG [M12E] | 4.28
9 | FQELAGKELCARSEEQFRQRSPLG [M12R] | 3.34
10 | FQELAGKELCAASEEQFRQRSPLG [M12A] | 3.57
11 | FQELAGKELHAMSEEQFRQRSPLG [C10H] | 3.12
12 | FQELAGKELNAMSEEQFRQRSPLG [C10N] | 3.1
13 | FQELAGKELLAMSEEQFRQRSPLG [C10L] | 2.79
14 | FQELAGKELDAMSEEQFRQRSPLG [C10D] | 4.38
15 | FQELAGKELGAMSEEQFRQRSPLG [C10G] | 3.05
16 | FQELAGKELVAMSEEQFRQRSPLG [C10V] | 2.93
17 | FQELAGKELMAMSEEQFRQRSPLG [C10M] | 2.91
18 | FQELAGKELAAMSEEQFRQRSPLG [C10A] | 3.31
19 | FQELAGKELKAMSEEQFRQRSPLG [C10K] | 2.67
20 | FQELAGKELRAMSEEQFRQRSPLG [C10R] | 3.12
21 | FQELAGKELYAMSEEQFRQRSPLG [C10Y] | 2.4
22 | FQELAGKELPAMSEEQFRQRSPLG [C10P] | 4.32
23 | FQELAGKELWAMSEEQFRQRSPLG [C10W] | 1.9
24 | FQELAGKELEAMSEEQFRQRSPLG [C10E] | 3.9

Row | Variant | protein stability index
25 | FQELAGKELIAMSEEQFRQRSPLG [C10I] | 3.34
26 | FQELAGKELFAMSEEQFRQRSPLG [C10F] | 2
27 | FQELAGKELSAMSEEQFRQRSPLG [C10S] | 3.4
28 | FQELAGKELQAMSEEQFRQRSPLG [C10Q] | 3.46
29 | FQELAGKELTAMSEEQFRQRSPLG [C10T] | 3.52
30 | FQEHAGKELCAMSEEQFRQRSPLG [L4H] | 3.85
31 | FQECAGKELCAMSEEQFRQRSPLG [L4C] | 4.02
32 | FQEIAGKELCAMSEEQFRQRSPLG [L4I] | 3.15
33 | FQEGAGKELCAMSEEQFRQRSPLG [L4G] | 3.97
34 | FQERAGKELCAMSEEQFRQRSPLG [L4R] | 3
35 | FQEPAGKELCAMSEEQFRQRSPLG [L4P] | 3.99
36 | FQENAGKELCAMSEEQFRQRSPLG [L4N] | 3.8
37 | FQEQAGKELCAMSEEQFRQRSPLG [L4Q] | 3.91
38 | FQESAGKELCAMSEEQFRQRSPLG [L4S] | 4.01
39 | FQEFAGKELCAMSEEQFRQRSPLG [L4F] | 2.84
40 | FQEKAGKELCAMSEEQFRQRSPLG [L4K] | 3.59
41 | FQEMAGKELCAMSEEQFRQRSPLG [L4M] | 2.6
42 | FQEYAGKELCAMSEEQFRQRSPLG [L4Y] | 2.61
43 | FQEVAGKELCAMSEEQFRQRSPLG [L4V] | 3.85
44 | FQEDAGKELCAMSEEQFRQRSPLG [L4D] | 4.38
45 | FQEEAGKELCAMSEEQFRQRSPLG [L4E] | 4.48
46 | FQETAGKELCAMSEEQFRQRSPLG [L4T] | 3.94
47 | FQEWAGKELCAMSEEQFRQRSPLG [L4W] | 2.4
48 | FQEAAGKELCAMSEEQFRQRSPLG [L4A] | 3.35

Row | Variant | protein stability index
49 | FQPLAGKELCAMSEEQFRQRSPLG [E3P] | 2.64
50 | FQRLAGKELCAMSEEQFRQRSPLG [E3R] | 3.33
51 | FQSLAGKELCAMSEEQFRQRSPLG [E3S] | 2.34
52 | FQVLAGKELCAMSEEQFRQRSPLG [E3V] | 2.44
53 | FQYLAGKELCAMSEEQFRQRSPLG [E3Y] | 2.69
54 | FQQLAGKELCAMSEEQFRQRSPLG [E3Q] | 3.45
55 | FQWLAGKELCAMSEEQFRQRSPLG [E3W] | 1.72
56 | FQTLAGKELCAMSEEQFRQRSPLG [E3T] | 2.22
57 | FQELAVKELCAMSEEQFRQRSPLG [G6V] | 1.68
58 | FQELAPKELCAMSEEQFRQRSPLG [G6P] | 3.7
59 | FQELAQKELCAMSEEQFRQRSPLG [G6Q] | 2.68
60 | FQELAWKELCAMSEEQFRQRSPLG [G6W] | 2.65
61 | FQELATKELCAMSEEQFRQRSPLG [G6T] | 3.32
62 | FQELAAKELCAMSEEQFRQRSPLG [G6A] | 2.4
63 | FQELAEKELCAMSEEQFRQRSPLG [G6E] | 4.18
64 | FQELARKELCAMSEEQFRQRSPLG [G6R] | 2.58
65 | FQELADKELCAMSEEQFRQRSPLG [G6D] | 3.62
66 | FQELACKELCAMSEEQFRQRSPLG [G6C] | 2.28
67 | FQELAYKELCAMSEEQFRQRSPLG [G6Y] | 1.9
68 | FQELALKELCAMSEEQFRQRSPLG [G6L] | 2.44
69 | FQELAKKELCAMSEEQFRQRSPLG [G6K] | 3.03
70 | FQELAFKELCAMSEEQFRQRSPLG [G6F] | 1.84
71 | FQELASKELCAMSEEQFRQRSPLG [G6S] | 2.53
72 | FQELAMKELCAMSEEQFRQRSPLG [G6M] | 2.46

Row | Variant | protein stability index
73 | FQELAHKELCAMSEEQFRQRSPLG [G6H] | 2.73
74 | FQELAIKELCAMSEEQFRQRSPLG [G6I] | 2.69
75 | FQELANKELCAMSEEQFRQRSPLG [G6N] | 3.4
76 | FQELAGKELCSMSEEQFRQRSPLG [A11S] | 2.31
77 | FQELAGKELCVMSEEQFRQRSPLG [A11V] | 1.94
78 | FQELAGKELCEMSEEQFRQRSPLG [A11E] | 3.49
79 | FQELAGKELCNMSEEQFRQRSPLG [A11N] | 2.91
80 | FQELAGKELCFMSEEQFRQRSPLG [A11F] | 2.5
81 | FQELAGKELCHMSEEQFRQRSPLG [A11H] | 3.35
82 | FQELAGKELCWMSEEQFRQRSPLG [A11W] | 2.83
83 | FQELAGKELCCMSEEQFRQRSPLG [A11C] | 1.83
84 | FQELAGKELCMMSEEQFRQRSPLG [A11M] | 2.35
85 | FQELAGKELCGMSEEQFRQRSPLG [A11G] | 2.94
86 | FQELAGKELCRMSEEQFRQRSPLG [A11R] | 2.52
87 | FQELAGKELCDMSEEQFRQRSPLG [A11D] | 4.66
88 | FQELAGKELCLMSEEQFRQRSPLG [A11L] | 2.23
89 | FQELAGKELCQMSEEQFRQRSPLG [A11Q] | 3.55
90 | FQELAGKELCKMSEEQFRQRSPLG [A11K] | 2.61
91 | FQELAGKELCIMSEEQFRQRSPLG [A11I] | 1.87
92 | FQELAGKELCTMSEEQFRQRSPLG [A11T] | 2.31
93 | FQELAGKELCYMSEEQFRQRSPLG [A11Y] | 2.67
94 | FQELAGKELCPMSEEQFRQRSPLG [A11P] | 3.56
